Source: patent US20220056104A1 (Janssen / Centocor, published 2022)
Where a chain is given by its changes, count along the chain named. In names and notes the source's numbering stands.

T1: DcR3 (UniProt O95407 30-300, limits assumed)
T1 construct: the construct is not described; also called decoy receptor DcR3; TNFRSF6B
T1 sequence (looked up): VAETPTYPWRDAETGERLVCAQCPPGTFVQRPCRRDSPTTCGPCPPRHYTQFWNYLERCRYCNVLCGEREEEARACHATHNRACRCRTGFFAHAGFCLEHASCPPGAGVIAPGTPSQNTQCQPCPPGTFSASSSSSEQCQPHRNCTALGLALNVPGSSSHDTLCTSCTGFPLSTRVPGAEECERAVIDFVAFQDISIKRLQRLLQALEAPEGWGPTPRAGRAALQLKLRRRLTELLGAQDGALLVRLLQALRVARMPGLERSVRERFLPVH

T2: Recombinant DR3-Fc (R&D Systems, cat. #943-D3) (UniProt Q93038 25-199, limits assumed)
T2 construct: dimeric MW~92 kDa; also called DR3 receptor; Fc-DR3; not shown: Fc part of the bought fusion
T2 sequence (looked up): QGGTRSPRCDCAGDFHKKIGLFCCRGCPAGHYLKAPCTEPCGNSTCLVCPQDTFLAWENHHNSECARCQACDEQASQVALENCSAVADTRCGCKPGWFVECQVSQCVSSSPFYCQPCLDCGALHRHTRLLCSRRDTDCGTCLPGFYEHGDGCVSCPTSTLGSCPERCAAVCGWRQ

B1: TL1W25 (His-TEV-hTL1A 72-251 N207A) (ligand)
chain: HHHHHHENLYFQGLKGQEFAPSHQQVYAPLRADGDKPRAHLTVVRQTPTQHFKNQFPALHWEHELGLAFTKNRMNYTNKFLLIPESGDYFIYSQVTFRGMTSECSEIRQAGRPNKPDSITVVITKVTDSYPEPTQLLMGTKSVCEVGSAWFQPIYLGAMFSLQEGDKLMVNVSDISLVDYTKEDKTFFGAFLL
notes: also called TL1W25 (N207A)
B2: TL1W28 (His-TEV-hTL1A 72-251 E190G) (ligand)
chain: B1 chain with E132G, A149N
notes: also called TL1W28 (E190G)
B3: TL1W29 (His-TEV-hTL1A 72-251 P189A) (ligand)
chain: B1 chain with P131A, A149N
notes: also called TL1W29 (P189A)
B4: TL1W30 (His-TEV-hTL1A 72-251 N112E) (ligand)
chain: B1 chain with N54E, A149N
notes: also called TL1W30 (N112E)
B5: TL1W31 (GD: Single chain MMB in CBIS; His-TEV-hTL1A 72-251 R103Q) (ligand)
chain: B1 chain with R45Q, A149N
notes: also called TL1W31 (R103Q)
B6: TL1W32 (His-TEV-hTL1A 72-251 Y188A) (ligand)
chain: B1 chain with Y130A, A149N
notes: also called TL1W32 (Y188A)
B7: TL1W33 (His-TEV-hTL1A 72-251 R103A) (ligand)
chain: B1 chain with R45A, A149N
notes: also called TL1W33 (R103A)
B8: TL1W37 (His-TEV-TL1A L123E) (ligand)
chain: B1 chain with L65E, A149N
notes: also called TL1W37 (L123E)
B9: TL1W39 (His-TEV-TL1A L123G) (ligand)
chain: B1 chain with L65G, A149N
notes: also called TL1W39 (L123G)
B10: TL1W40 (His-TEV-TL1A L123S) (ligand)
chain: B1 chain with L65S, A149N
notes: also called TL1W40 (L123S)
B11: TL1W41 (His-TEV-TL1A E120A) (ligand)
chain: B1 chain with E62A, A149N
notes: also called TL1W41 (E120A)
B12: TL1W42 (His-TEV-TL1A F114A) (ligand)
chain: B1 chain with F56A, A149N
notes: also called TL1W42 (F114A)
B13: TL1W43 (His-TEV-TL1A Y188S) (ligand)
chain: B1 chain with Y130S, A149N
notes: also called TL1W43 (Y188S)
B14: TL1W44 (His-TEV-TL1A P189K) (ligand)
chain: B1 chain with P131K, A149N
notes: also called TL1W44 (P189K)
B15: TL1W47 (His-TEV-TL1A E241A) (ligand)
chain: B1 chain with A149N, E183A
notes: also called TL1W47 (E241A)
B16: TL1W78 (His-TEV-TL1A R103H) (ligand)
chain: B1 chain with R45H, A149N
notes: also called TL1W78 (R103H)
B17: TL1W79 (His-TEV-TL1A R103E) (ligand)
chain: B1 chain with R45E, A149N
notes: also called TL1W79 (R103E)
B18: TL1W81 (His-TEV-TL1A K111S) (ligand)
chain: B1 chain with K53S, A149N
notes: also called TL1W81 (K111S)
B19: TL1W82 (His-TEV-TL1A K111E) (ligand)
chain: B1 chain with K53E, A149N
notes: also called TL1W82 (K111E)
B20: TL1W84 (His-TEV-TL1A E120H) (ligand)
chain: B1 chain with E62H, A149N
notes: also called TL1W84 (E120H)
B21: TL1W85 (His-TEV-TL1A G124S) (ligand)
chain: B1 chain with G66S, A149N
notes: also called TL1W85 (G124S)
B22: TL1W90 (His-TEV-TL1A R156K) (ligand)
chain: B1 chain with R98K, A149N
notes: also called TL1W90 (R156K)
B23: TL1W93 (His-TEV-TL1A M158K) (ligand)
chain: B1 chain with M100K, A149N
notes: also called TL1W93 (M158K)
B24: TL1W94 (His-TEV-TL1A M158E) (ligand)
chain: B1 chain with M100E, A149N
notes: also called TL1W94 (M158E)
B25: TL1W96 (His-TEV-TL1A R170E) (ligand)
chain: B1 chain with R112E, A149N
notes: also called TL1W96 (R170E)
B26: TL1W97 (His-TEV-TL1A K173S) (ligand)
chain: B1 chain with K115S, A149N
notes: also called TL1W97 (K173S)
B27: TL1W98 (His-TEV-TL1A K173R) (ligand)
chain: B1 chain with K115R, A149N
notes: also called TL1W98 (K173R)
B28: TL1W99 (His-TEV-TL1A S176A) (ligand)
chain: B1 chain with S118A, A149N
notes: also called TL1W99 (S176A)
B29: TL1W100 (His-TEV-TL1A S176L) (ligand)
chain: B1 chain with S118L, A149N
notes: also called TL1W100 (S176L)
B30: TL1W102 (His-TEV-TL1A S176K) (ligand)
chain: B1 chain with S118K, A149N
notes: also called TL1W102 (S176K)
B31: TL1W103 (His-TEV-TL1A T185A) (ligand)
chain: B1 chain with T127A, A149N
notes: also called TL1W103 (T185A)
B32: TL1W104 (His-TEV-TL1A T185L) (ligand)
chain: B1 chain with T127L, A149N
notes: also called TL1W104 (T185L)
B33: TL1W105 (His-TEV-TL1A T185N) (ligand)
chain: B1 chain with T127N, A149N
notes: also called TL1W105 (T185N)

molecular target: T1, DcR3; assay: ELISA, DcR3

Row | Binder | EC50 [nM] | Rel EC50
1 | B1 | 3.7 | 0.8 ratio (head: nM)
2 | B2 | 5.7 | 1.2 ratio (head: nM)
3 | B3 | 7.6 | 1.7 ratio (head: nM)
4 | B4 | 4.7 | 1 ratio (head: nM)
5 | B5 | 2.5 | 0.5 ratio (head: nM)
6 | B6 | 7.6 | 1.7 ratio (head: nM)
7 | B7 | 3.3 | 0.7 ratio (head: nM)
8 | B8 | 24.3 | 5.3 ratio (head: nM)
9 | B9 | 38.2 | 8.3 ratio (head: nM)
10 | B10 | 16.4 | 3.6 ratio (head: nM)
11 | B11 | 32.6 | 7.1 ratio (head: nM)
12 | B12 | 11.4 | 2.5 ratio (head: nM)
13 | B13 | 72.2 | 15.7 ratio (head: nM)
14 | B14 | 59.1 | 12.8 ratio (head: nM)
15 | B15 | 1310 | 285 ratio (head: nM)
16 | B16 | 8.1 | 1.8 ratio (head: nM)
17 | B17 | 7.1 | 1.5 ratio (head: nM)

Row | Binder | EC50 [nM] | Rel EC50
18 | B18 | 50.9 | 11.1 ratio (head: nM)
19 | B19 | 10.6 | 2.3 ratio (head: nM)
20 | B20 | 55.7 | 12.1 ratio (head: nM)
21 | B21 | 57.1 | 12.4 ratio (head: nM)
22 | B22 | 11 | 2.4 ratio (head: nM)
23 | B23 | 55.9 | 12.1 ratio (head: nM)
24 | B24 | 18.7 | 4.1 ratio (head: nM)
25 | B25 | 16.4 | 3.6 ratio (head: nM)
26 | B26 | 6.7 | 1.5 ratio (head: nM)
27 | B27 | 27.8 | 6 ratio (head: nM)
28 | B28 | 11.5 | 2.5 ratio (head: nM)
29 | B29 | 15 | 3.3 ratio (head: nM)
30 | B30 | 29.2 | 6.3 ratio (head: nM)
31 | B31 | 11.5 | 2.5 ratio (head: nM)
32 | B32 | 19.3 | 4.2 ratio (head: nM)
33 | B33 | 11.3 | 2.4 ratio (head: nM)

molecular target: T2, Recombinant DR3-Fc (R&D Systems, cat. …); assay: ELISA, DR3-Fc immobilized
Experimental: All ELISA-based measurements were collected in triplicate, and error values report the standard error between measurements. Recombinant DR3-Fc (R&D Systems, cat. #943-D3), dimeric MW˜92 kDa, was non-specifically immobilized onto plates (Nunc maxisorp, cat. #436110) in 100 μL DR3-Fc, diluted to 10 μg/mL onto a 96-well White Maxisorp plate (Nunc, cat #436110) (O/N, 4° C.). Plates were block for 1 hour at room temperature with 250 μl/well of casein buffer and blocking buffer was removed. 50 μL of TL1A variants were diluted in StartingBlock PBS (Thermo Fisher Scientific), at 25 μg/mL, diluting 3× over each well, according to the plate map description for 20160623) per well on a 96-well White Maxisorp plate (Nunc, cat #: 436110) (overnight at 4° C.).
Plates were washed three times with TBST. 100 μl/well polyclonal rabbit anti-human TL1A-biotin antibody (diluted 1:1000 in Starting Block PBS) was added and plates were incubated for 1 hour at room temperature with shaking at 150 rpm. TL1A-biotin antibody was removed and 100 μl/well streptavidin-HRP conjugate (diluted 1:10,000 in Starting Block PBS) was added to plates. Plates were incubated for 1 hour at room temperature with shaking at 150 rpm. Plates were washed three times with TBST. 100 μl/well POD Chemiluminescence substrate (Roche, cat #: 11582950001) was added immediately prior to reading plate luminescence using a Molecular Devices M5 plate reader with a delay setting of 100 ms.
Variants of TL1A were generated and tested for binding to DR3 and DcR3 by ELISA as described.

Row | Binder | EC50 [nM] | Rel EC50
34 | B1 | 13.4 | 0.5 ratio (head: nM)
35 | B2 | 22.6 | 0.9 ratio (head: nM)
36 | B3 | 710 | 27.1 ratio (head: nM)
37 | B4 | 16.4 | 0.6 ratio (head: nM)
38 | B5 | 9.5 | 0.4 ratio (head: nM)
39 | B6 | 565 | 21.6 ratio (head: nM)
40 | B7 | 25 | 1 ratio (head: nM)
41 | B8 | 423 | 16.1 ratio (head: nM)
42 | B9 | 184 | 7 ratio (head: nM)
43 | B10 | 30.7 | 1.2 ratio (head: nM)
44 | B11 | 100 | 3.8 ratio (head: nM)
45 | B12 | 77.7 | 3 ratio (head: nM)
46 | B13 | 207 | 7.9 ratio (head: nM)
47 | B14 | 168 | 6.4 ratio (head: nM)
48 | B15 | 260 | 9.9 ratio (head: nM)
49 | B16 | 77.2 | 2.9 ratio (head: nM)
50 | B17 | 204 | 7.8 ratio (head: nM)

Row | Binder | EC50 [nM] | Rel EC50
51 | B18 | 34.4 | 1.3 ratio (head: nM)
52 | B19 | 25.8 | 1 ratio (head: nM)
53 | B20 | 182 | 7 ratio (head: nM)
54 | B21 | 296 | 11.3 ratio (head: nM)
55 | B22 | 188 | 7.2 ratio (head: nM)
56 | B23 | 22.5 | 0.9 ratio (head: nM)
57 | B24 | 58.7 | 2.2 ratio (head: nM)
58 | B25 | 87 | 3.3 ratio (head: nM)
59 | B26 | 131 | 5 ratio (head: nM)
60 | B27 | 2050 | 78.4 ratio (head: nM)
61 | B28 | 34.8 | 1.3 ratio (head: nM)
62 | B29 | 324 | 12.4 ratio (head: nM)
63 | B30 | 182 | 6.9 ratio (head: nM)
64 | B31 | 57.9 | 2.2 ratio (head: nM)
65 | B32 | 49.4 | 1.9 ratio (head: nM)
66 | B33 | 180 | 6.9 ratio (head: nM)
